Test results taken from patent US20150306174A1 (NEW YORK BLOOD CENTER, published 2015).
Ends that are not written are not given here.

B1: N28 (peptide)
peptide: IEAQQHLLQLTVWGIKQLQARILAVERY
notes: Residue numbers count on HIV-1 HXB2 gp160; also called N28 peptide; free N28 peptide
B2: N28Fd trimer (designed binder)
chain: IEAQQHLLQLTVWGIKQLQARILAVERYGYIPEAPRDGQAYVRKDGEWVLLSTFL
modifications: also: trimer
notes: It gives the full length as 55 residues; also called FdN28Fd1

Experiments:
C34 [1] = target: T1, C34 (HIV-1); experiment: CD spectroscopy of the N-peptide/C-peptide mixture in PBS
T1 construct: also called CHR-peptide C34; C-peptide C34

C34 [2] = target: T1, C34; experiment: CD thermal denaturation monitored at 222 nm

Binder | binding result (C34 [1]) | Tm of the complex (C34 [2])
B1 | no binding (tested: 10 µM) | 
B2 |  | 62.2 ° C.
